Consider 3 molecules from PMC4237994.

The target of the data set is T1, Isl-1-Myc (UniProt P61372 1-349).
T1 sequence: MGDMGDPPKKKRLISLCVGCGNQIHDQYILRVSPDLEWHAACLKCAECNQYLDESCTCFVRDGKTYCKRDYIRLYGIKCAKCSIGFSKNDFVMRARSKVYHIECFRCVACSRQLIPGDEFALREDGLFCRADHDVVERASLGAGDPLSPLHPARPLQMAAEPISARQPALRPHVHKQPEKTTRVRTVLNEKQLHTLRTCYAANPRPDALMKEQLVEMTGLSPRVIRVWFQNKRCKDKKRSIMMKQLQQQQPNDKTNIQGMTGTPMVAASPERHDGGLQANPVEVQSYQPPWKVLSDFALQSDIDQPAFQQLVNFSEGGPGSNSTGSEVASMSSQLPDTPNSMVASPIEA
The data set is described as follows: competition.

B1: Pdx1 Area IV-4 (dsDNA)
DNA 1: TTATTGCCTGCCTTTAATTGTACTTAT
DNA 2: ATAAGTACAATTAAAGGCAGGCAATAA
As to B1, the binding result is reported as “binds”.

B2: Pdx1 Area I-4 (dsDNA)
DNA 1: GTATCACCCATAATGGATTTAGCCACCT
DNA 2: AGGTGGCTAAATCCATTATGGGTGATAC
B2: the binding result was “binds”.

B3: Pdx1 Area II-3 (dsDNA)
DNA 1: AATGCATGCAATTAGACCAGAAGTGCTAA
DNA 2: TTAGCACTTCTGGTCTAATTGCATGCATT
For B3, the binding result was “binds”.
